Data on two substances can be found in PMC4153549.

The subject of the data set is Grsf1-GST. The experiment in a line: EMSA. Particulars: 10 mM HEPES-NaOH pH 7.9, 25 mM KCl, 1.5 mM EDTA, 4% glycerol, 0.25 mM DTT, 7.5 ug/uL heparin, 25 ng/uL yeast tRNA, 20 min at 30 C; native 5% PAGE. (Mobility shift assays separate free from complexed probe on a gel.)

Use1 5'UTR WT A(G)4A probe displayed a Kd of 527 nM.
Under “Use1 dG4 probe (GGGG deleted from A(G)4A)” stands 4400 nM.

Usually Kd stands for a measure of binding affinity in units of concentration. Lower therefore signals a tighter complex.
